The values that follow come from US20180265572A1 (Bristol-Myers Squibb, published 2018).

The target in assay [1] is T1, human IGF-IR-Fc fusion (human, UniProt P08069 31-932).
T1 construct: range 1-932; If it counts on the precursor, it includes the signal peptide; also called IGF1R-Fc; not shown: hinge and constant regions of human IgG
Nature of the assay: SPR (Biacore T100), IGF-IR-Fc captured on Protein A; average over constructs; average over midscale and large scale material, with and without his tag; IGF1R-Fc. Here is the method:
(§1) Affinity data was also measured from midscale and large scale material, for the pegylated version of the tandem construct 385A08-Fn-V2B-cys (SEQ ID NO: 9, with and without his tag). The specific materials and methods for these calculations are described below.
(§2) An alternative method is to capture the IGF—IR-Fc on Protein A. This method was used for calculating the affinity and kinetics of certain versions of the construct 385A08-Fn-V2B-cys (both pegylated and non-pegylated and with or without his tag) from midscale and large scale materials. Specifically, IGF—IR-Fc was captured on Protein A immobilized on a Biacore CM5 sensor chip by amine coupling. VEGFR2-Fc was immobilized directly on a CM5 chip by amine coupling. The affinity and kinetic analysis involved the capture of IGF—IR-Fc on Protein A followed by injection of the tandem adnectin in solution over IGF—IR-Fc and VEGFR2-Fc. The analytical surface was regenerated between samples with glycine pH 1.5. Sensorgrams were obtained at each concentration and were evaluated using Biacore T100 evaluation software to determine the rate constants kₐ (kₒₙ) and kd (koff).
A general note: Surface plasmon resonance follows binding to a sensor surface in real time, without labels.

Assay [2] has as its target T2, VEGFR2-Fc (R&D Systems) (UniProt P35968 20-764).
T2 construct: Bought reagent; not shown: Fc part of the bought fusion; not described
Nature of the assay: SPR (Biacore T100), VEGFR2-Fc immobilised directly on a CM5 chip; average over constructs; average over midscale and large scale material, with and without his tag; VEGFR2. The protocol: as §1
as §2, with “The affinity and kinetic analysis involved the capture of IGF—IR-Fc on Protein A followed by injection of the tandem adnectin in solution over IGF—IR-Fc and VEGFR2-Fc. The analytical surface was regenerated between samples with glycine pH 1.5.” left out
(§3) The functionality of the V2B domain was assessed by evaluating a concentration series of the midscale and large scale purification of the tandem construct 385A08-Fn-V2B (pegylated, and non-pegylated versions, his-tag and non-his-tag versions) vs. VEGFR2-Fc that was directly immobilized on a CM5 chip surface (GE, Piscataway, N.J.). […] Varying concentrations of 385A08-Fn-V2B in the solution phase were monitored for association (2 minutes) and dissociation (10 minutes) kinetics at a flow rate of 50 uL/min. […]

The target of assay [3] is T2, VEGFR2-Fc (R&D Systems). Briefly: SPR (Biacore T100), VEGFR2-Fc immobilised directly on a CM5 chip; average over constructs; average over midscale and large scale material, with and without his tag; VEGFR2-Fc. The protocol:
as §1
as §2, with “The affinity and kinetic analysis involved the capture of IGF—IR-Fc on Protein A followed by injection of the tandem adnectin in solution over IGF—IR-Fc and VEGFR2-Fc. The analytical surface was regenerated between samples with glycine pH 1.5.” left out
as §3

The target in assay [4] is T1, human IGF-IR-Fc fusion. Briefly: SPR (Biacore T100), IGF-IR-Fc captured on Protein A; average over constructs; average over midscale and large scale material, with and without his tag; IGF1R. Here is the method:
as §1, §2

The target of assay [5] is T1, human IGF-IR-Fc fusion. Briefly: SPR (Biacore), IGF-IR-Fc captured on anti-human IgG, binder in solution (n of 1); IGF-IR domain; IGF-IR-Fc; n of 1. Here is the method: (§4) A concentration series of the midscale purification of the tandem construct 385A08-Fn-V2B (non pegylated, his-tagged version, SEQ ID NO: 8) was also evaluated. The functionality of each of the domains of this construct, specifically, the V2B domain, and the IGF-IR domain, was evaluated as described in the materials and methods section below.
Another method to assess the functionality of the IGF-IR domain is to capture the IGF—IR-Fc on anti-human IgG (GE, Piscataway, N.J.). This was done for the midscale purified construct 385A08-Fn-V2B (non-pegylated, his-tag) as described in Example 5 above. The anti-human IgG was immobilized on flow cells 1 and 2 of a CM5 chip surface according the manufacturer's instructions. 100 nM human IGF—IR-Fc was injected for 2 minutes at 10 ul/min on flow cell 2. Subsequently a concentration series of the midscale prep was injected across both flow cell surfaces at 50 uL/min. Two injections of 50 mM Glycine pH 1.7 were used to regenerate the surface.

The target of assay [6] is T2, VEGFR2-Fc (R&D Systems). Briefly: SPR (Biacore), VEGFR2-Fc immobilised directly on a CM5 chip, binder in solution; V2B domain; VEGFR2-Fc; average. Here is the method: as §4
(§5) The functionality of the V2B domain was assessed by evaluating a concentration series of the midscale and large scale purification of the tandem construct 385A08-Fn-V2B (pegylated, and non-pegylated versions, his-tag and non-his-tag versions) vs. VEGFR2-Fc that was directly immobilized on a CM5 chip surface (GE, Piscataway, N.J.). VEGFR2-Fc (R&D Systems, MN) was diluted to 12 ug/mL in 50 mM Acetate pH 5.0 for an immobilization level of ˜1300 RU. Varying concentrations of 385A08-Fn-V2B in the solution phase were monitored for association (2 minutes) and dissociation (10 minutes) kinetics at a flow rate of 50 uL/min. Two 30 second injections of 50 mM glycine pH 1.7 were used to regenerate the surface.

The target in assay [7] is T3, human IGF-IR on cells (human, UniProt P08069 31-1367). Nature of the assay: cell-based or functional assay.
For assay [8], the target named is VEGFR2 fusion protein on Ba/F3 cells (extracellular domain of hVEGFR2 and intracellular domain of hEpoR) (human, UniProt P35968 20-764; P19235 274-508, limits assumed). Nature of the assay: cell-based or functional assay.
In assay [9] the target is T1, human IGF-IR-Fc fusion. Briefly: SPR (Biacore), IGF-IR-Fc captured on Protein A/G, HTPP purified binder in solution, n=1, KD approximate.
The target in assay [10] is T2, VEGFR2-Fc (R&D Systems). Briefly: SPR (Biacore), VEGFR2-Fc immobilised directly on a CM5 chip, binder in solution; V2B domain; VEGFR2-Fc. The protocol:
as §5

The target of assay [11] is T3, human IGF-IR on cells. Nature of the assay: competitive blocking assay on R+ cells overexpressing human IGF-IR; competitor 200 nM IRDye 800CW-labelled AT580-PEG20-AT580. Here is the method:
Certain tandem constructs were evaluated for their ability to compete with mono-specific IGF-IR and VEGFR-2 binders in vitro.
R⁺, a gift from Renato Baserga (Thomas Jefferson University, Philadelphia, Pa.), is a mouse embryo fibroblast overexpressing human IGF-IR in the context of a deletion in the mouse IGF-IR gene. Cells were plated in 96 well plates at a concentration of 20,000 cells per well in DMEM (Invitrogen, Carlsbad, Calif.) containing 5% calf serum (Hyclone, Logan, Utah). The following day, cells were washed twice in serum free DMEM containing 0.1% BSA (Invitrogen, Carlsbad, Calif.). After the washes, the cells were incubated at 4° C. for 10 minutes in binding buffer (serum free DMEM+0.1% BSA) containing increasing concentrations of IGF-IR antagonists or controls. Typical controls included the mono-specific ¹⁰Fn3-based IGF-IR binder (AT580-PEG40, SEQ ID NO: 27) (positive control) or the mono-specific ¹⁰Fn3-based VEGFR2 binder (Peg-V2Bshort, SEQ ID NO: 28) (negative control). Following this brief exposure to antagonists, R⁺ cells were additionally exposed to 200 nM of a bi-valent ¹⁰Fn3-based IGF-IR binder (AT580-PEG20-AT580, SEQ ID NO: 27) labeled with IRDye 800CW according to the manufacturer instructions (Li-Cor Biosciences, Lincoln, Nebr.). […] The resulting data was analyzed using GraphPad Prism (GraphPad Software, La Jolla, Calif.).

The target of assay [12] is T3, human IGF-IR on cells. Nature of the assay: cell-based or functional assay. The source holds these as a separate data set.
Assay [13] concerns the target T1, human IGF-IR-Fc fusion. Briefly: SPR (Biacore), binding to IGF-IR-Fc, n=1.

B1: pegylated version of the tandem construct 385A08-Fn-V2B-cys (with and without his tag) (designed binder)
chain: MGVSDVPRDLEVVAATPTSLLISWSARLKVARYYRITYGETGGNSPVQEFTVPKNVYTATISGLKPGVDYTITVYAVTRFRDYQPISINYRTEIDKPSTSTSTVSDVPRDLEVVAATPTSLLISWRHPHFPTRYYRITYGETGGNSPVQEFTVPLQPPTATISGLKPGVDYTITVYAVTDGRNGRLLSIPISINYRTEIDKPCQ
modifications: PEG on the single cysteine at position 203
notes: also called the various constructs tested
As to B1, the koff in the assay with human IGF-IR-Fc fusion [1] was 0.000247 s⁻¹; with VEGFR2-Fc (R&D Systems) [3] it was 0.000102 s⁻¹. The figures for the kon in the assay with human IGF-IR-Fc fusion [1] and with VEGFR2-Fc (R&D Systems) [3] were 315000 M⁻¹ s⁻¹ and 11500 M⁻¹ s⁻¹, respectively. Further, the figures for the dissociation constant (Kd) with VEGFR2-Fc (R&D Systems) [2] and in the assay with human IGF-IR-Fc fusion [4] were 10.5 nM and 0.84 nM, respectively.

B2: 385A08-Fn-V2B (non pegylated, his-tagged version) (designed binder)
chain: GVSDVPRDLEVVAATPTSLLISWSARLKVARYYRITYGETGGNSPVQEFTVPKNVYTATISGLKPGVDYTITVYAVTRFRDYQPISINYRTEIDKPSTSTSTVSDVPRDLEVVAATPTSLLISWRHPHFPTRYYRITYGETGGNSPVQEFTVPLQPPTATISGLKPGVDYTITVYAVTDGRNGRLLSIPISINYRTEIDKPSQHHHHHH
notes: also called 385A08-Fn-V2B (Ser tail); 385A08-Fn-V2B (with his tag)
With B2, the results for the dissociation constant Kd with human IGF-IR-Fc fusion [5], with human IGF-IR-Fc fusion [9] and with VEGFR2-Fc (R&D Systems) [10] were around 0.02 nM, around 0.3 nM and around 0.3 nM, respectively. For the same molecule, the off-rate (koff) came to 0.00017 s⁻¹ with human IGF-IR-Fc fusion [5] and 0.00045 s⁻¹ in the assay with VEGFR2-Fc (R&D Systems) [6]. Moreover, the kon in the assay with human IGF-IR-Fc fusion [5] came out at 1.1e+07 M⁻¹ s⁻¹; with VEGFR2-Fc (R&D Systems) [6] it was 1.4e+06 M⁻¹ s⁻¹. Further, the “IC50, inhibition of proliferation of Rh41 cells (n=1)” value in the assay with human IGF-IR on cells [7] was 26 nM. For the same molecule, the “IC50, inhibition of VEGF-A dependent proliferation of Ba/F3 cells” value in [8] turned out to be 1 nM.

B3: AT580-PEG40 (designed binder)
chain: MGVSDVPRDLEVVAATPTSLLISWSARLKVARYYRITYGETGGNSPVQEFTVPKNVYTATISGLKPGVDYTITVYAVTRFRDYQPISINYRTEIDKPCQ
modifications: 40 kDa PEG at position 98 (cysteine)
Turning to B3, the IC50 with human IGF-IR on cells [11] was 600 nM. Also, the “IC50 for inhibition of pIGF-1R activity, Western blot, HMVEC-L cells stimulated with VEGF and IGF-1” value with human IGF-IR on cells [12] came to 100 nM.

B4: AT577 (designed binder)
chain: MGVSDVPRDLEVVAATPTSLLISWSARLKVARYYRITYGETGGNSPVQEFTVPKNVYTATISGLKPGVDYTITVYAVTRFRDYQPISINYRTEIDKPSQ
Turning to B4, in the assay with human IGF-IR-Fc fusion [13], binding was put at a Kd of 0.076 nM.

A word on the koff: it is the rate constant with which the complex falls apart. Lower therefore signals slow dissociation. A word on the kon: it is a measure of how fast the partners come together. High values mean faster complex formation, low ones slower complex formation. The term Kd denotes the free concentration of one partner at which half of the binding sites on the other are occupied at equilibrium, for simple one-to-one binding. A lower Kd goes with a tighter complex. Usually IC50 stands for the midpoint of a concentration-inhibition curve. A higher IC50 goes with a need for much substance.
